The values that follow come from patent US20050049195A1.

This assay has as its target Wnt proteins. Put plainly: cell-based or functional assay.
“Mouse sFRP1 (secreted Frizzled-related protein 1) (from UniProt Q8C4U3 32-314)” had a percent of injection sites with correct anterior turns of post-crossing commissural axons (open-book explant, collagen gel) of 11%.
For the substance “Mouse sFRP2 (secreted Frizzled-related protein 2), Myc epitope tagged (from UniProt P97299 25-295)”, the percent of injection sites with correct anterior turns of post-crossing commissural axons (open-book explant, collagen gel) turned out to be 25%.
The same measure for “Mouse sFRP3 (secreted Frizzled-related protein 3), Myc epitope tagged (from UniProt P97401 33-323)”: 25%.
